Results published in paper PMC7755208, “Design of novel granulopoietic proteins by topological rescaffolding” (PLoS Biology, 2020).

Experiments:
[1] = target: T1, recombinant human G-CSF receptor (R&D systems 381-GR-050/CF) (human, UniProt Q99062 25-333); assay: SPR; Biacore X100, multi-cycle kinetics; G-CSFR immobilised on a CM5 chip by amine coupling; analytes in 10 mM HEPES pH 7.4, 150 mM NaCl, 3.4 mM EDTA, 0.005% Tween-20; 25°C, 30 uL/min; 1:1 model, ka and kd from a linear fit of kobs against concentration; settings: both partners purified
T1 construct: granulocyte colony-stimulating factor receptor, human, recombinant; As recalled, this catalogue item is a soluble extracellular form of the receptor; also called rhG-CSFR; granulocyte colony-stimulating factor receptor; source: bought: R&D systems 381-GR-050/CF
T1 sequence: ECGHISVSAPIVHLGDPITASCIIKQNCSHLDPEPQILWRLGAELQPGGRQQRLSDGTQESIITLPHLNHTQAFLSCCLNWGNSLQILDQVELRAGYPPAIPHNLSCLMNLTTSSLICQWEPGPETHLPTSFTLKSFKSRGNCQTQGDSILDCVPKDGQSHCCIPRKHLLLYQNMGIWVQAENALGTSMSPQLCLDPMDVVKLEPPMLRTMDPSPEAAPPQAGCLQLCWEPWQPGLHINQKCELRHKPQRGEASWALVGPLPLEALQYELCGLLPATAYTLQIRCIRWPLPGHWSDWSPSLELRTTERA

[2] = target: T1, recombinant human G-CSF receptor (R&D …); assay: as above; settings: both partners purified; remark: listed apart in the source

Kd [1]: 1.4 nM | Kd [2]: 1.1 nM | koff [2]: 0.00049 s⁻¹ | kon [2]: 300000 M⁻¹ s⁻¹
B1: recombinant human granulocyte colony-stimulating factor (USP RS Filgrastim) (ligand, UniProt P09919-2 31-204, looked up)
chain: TPLGPASSLPQSFLLKCLEQVRKIQGDGAALQEKLCATYKLCHPEELVLLGHSLGIPWAPLSSCPSQALQLAGCLSQLHSGLFLYQGLLQALEGISPELGPTLDTLQLDVADFATTIWQQMEELGMAPALQPTQGAMPAFASAFQRRAGGVLVASHLQSFLEVSYRVLRHLAQP
notes: granulocyte colony-stimulating factor, human, as filgrastim; printed size 19 kDa; The SPR methods name filgrastim; also called rhG-CSF; G-CSF; source: bought: USP RS Filgrastim, Sigma-Aldrich 1270435
